Test results as given in PMC13186708.

Molecular target: Alistipes sp. Cas12f (Al3Cas12f), wild type (Alistipes sp.)
Experiment: SEC; apo Al3Cas12f without gRNA on an S200i 10/300 GL column; 50 mM Tris-HCl pH 7.5, 250 mM NaCl, 10 mM MgCl2, 0.5 mM EDTA, 5% glycerol, 0.5 mM TCEP; peak at about 11.5 mL, near the 158 kDa standard

Alistipes sp. Cas12f (Al3Cas12f), wild type (enzyme)
stoichiometry N: 2
